The target of the series is T1, GUCY2C receptor (Mus musculus, UniProt Q3UWA6).
T1 construct: from tissue; host or cells: adult mouse brain (substantia nigra mDA neurons), in vivo after tail vein injection
T1 sequence (Q3UWA6 20-1072): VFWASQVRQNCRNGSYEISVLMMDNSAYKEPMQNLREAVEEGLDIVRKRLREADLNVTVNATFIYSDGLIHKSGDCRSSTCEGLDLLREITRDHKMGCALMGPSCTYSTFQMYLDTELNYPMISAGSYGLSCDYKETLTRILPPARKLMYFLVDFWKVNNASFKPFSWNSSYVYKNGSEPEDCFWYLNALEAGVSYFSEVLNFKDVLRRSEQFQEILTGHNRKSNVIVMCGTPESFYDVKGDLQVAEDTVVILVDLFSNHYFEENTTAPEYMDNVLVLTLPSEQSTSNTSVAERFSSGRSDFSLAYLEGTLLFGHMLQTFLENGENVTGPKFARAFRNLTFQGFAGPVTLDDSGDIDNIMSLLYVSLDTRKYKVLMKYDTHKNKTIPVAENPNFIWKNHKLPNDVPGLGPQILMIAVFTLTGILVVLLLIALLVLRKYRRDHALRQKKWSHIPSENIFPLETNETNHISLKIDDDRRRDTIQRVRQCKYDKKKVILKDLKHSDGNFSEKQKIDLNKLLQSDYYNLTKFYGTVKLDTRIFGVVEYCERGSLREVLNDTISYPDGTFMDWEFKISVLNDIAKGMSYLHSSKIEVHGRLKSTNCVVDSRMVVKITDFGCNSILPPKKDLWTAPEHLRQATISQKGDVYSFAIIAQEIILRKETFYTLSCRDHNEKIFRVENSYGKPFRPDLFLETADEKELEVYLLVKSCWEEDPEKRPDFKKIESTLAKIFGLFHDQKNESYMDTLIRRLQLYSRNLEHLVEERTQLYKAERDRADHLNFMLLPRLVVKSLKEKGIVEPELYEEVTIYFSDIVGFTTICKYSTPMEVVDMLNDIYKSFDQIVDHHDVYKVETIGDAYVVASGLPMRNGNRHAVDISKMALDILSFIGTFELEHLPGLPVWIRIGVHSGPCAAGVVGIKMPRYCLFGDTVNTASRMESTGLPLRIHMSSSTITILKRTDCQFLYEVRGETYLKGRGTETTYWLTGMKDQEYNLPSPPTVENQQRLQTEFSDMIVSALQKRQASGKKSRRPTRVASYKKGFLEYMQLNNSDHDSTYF
Briefly: Autoradiography of sagittal brain sections after tail vein injection of ^131I-guanylin. The series is classed as in vivo. How it is done:
The GUCY2C receptor binds to heat stable enterotoxins, to guanylin and to uroguanylin. Guanylin is a 15 amino acid polypeptide (PGTCEICAYAACTGC, SEQ ID NO:1) that contains a tyrosine residue within the middle of its structure (Bryant et al., Life Sci. 86:760-765 (2010)). Guanylin (R&D Systems, Inc., Minneapolis, Minn.) was radiolabeled with ^131Iodine. 1 mCi of ^131I-guanylin was injected in the tail vein of adult mice and animals were sacrificed 10 minutes post-injection without perfusion.

“Also recorded” adds a separate entry of the source. Where no end group is shown, it is not given here.

Regarding “^131I-guanylin: Guanylin, a 15 amino acid polypeptide GUCY2C ligand (R&D Systems), radiolabeled with ^131Iodine (PGTCEICAYAACTGC; ends and bridges not checked; also: 131I radiolabel; UniProt Q02747 101-115, looked up)”, the “crossing of the blood brain barrier” value (adult mice, 1 mCi tail vein injection, 10 minutes post-injection) is on record as “crossed the blood brain barrier”. Moreover, the “localization of radioactive signal in sagittal brain sections (autoradiography)” value (adult mice, 1 mCi tail vein injection, sacrificed 10 minutes post-injection without perfusion) is “localized to the ventricles; also recorded: within the brain parenchyma the only “hot spot” was indeed localized to the GUCY2C expression domain; also recorded: strong emission in the ventricles and SN”. The “binding to GUCY2C expressing mDA neurons in the SN” value (adult mouse brain, after tail vein injection, signal specific to TH-expressing mDA neurons) is “bound to GUCY2C expressing mDA neurons in the SN of the adult brain; also recorded: specific binding to the GUCY2C receptor”.

For the origin of these results see patent US20150086481A1, “DIAGNOSIS AND TREATMENT OF PARKINSON'S DISEASE” (MEMORIAL SLOAN-KETTERING CANCER CENTER, priority 2011, published 2015).
